From the supplement of paper PMC9170038

Tested on: MS2 coat protein
Assay: apparent KD of MS2 coat protein; designed switch direction (-1 OFF switch, 1 ON switch): -1; higher = weaker reporter binding
Outline: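 On Illumina chips, designed RNA switches with common flanks were made by stalled E. coli RNA polymerase. Titrations with SNAP-549-labelled MS2 coat protein, doubling from 0.7 or 1.5 nM to 3 µM, were done with no input, with 200 uM small-molecule ligand, or with an oligonucleotide input. Apparent KD is the median per design over clusters, from curve fits of normalised cluster fluorescence.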

[1] = Eterna round: R95, input ligand: FMN 200 uM
[2] = Eterna round: R95, input ligand: microRNA oligo, concentration not stated
[3] = Eterna round: R95, input ligand: none

CCAUGAUAAGGAUAUUGAAGGUUCGACAUGAGGAUCACCCAUGUUAUGUUGGAAAAGGGACAAGAAGGUAUUAAUU [salish99_ex5_r4_221] (Eterna round: R97, puzzle: Exclusion 5)
apparent KD of MS2 coat protein (input ligand: FMN 200 uM): 48.2 nM | apparent KD of MS2 coat protein (input ligand: none): 45.8 nM

GAAAAGGUAGGAUAUACGUAAAAAAAGGGUAGAAAAAAAACACAUGAGGAUCACCCAUGUAGAAGGACCAAAAG [salish99_ex2_r3_087] (puzzle: Exclusion 2)
apparent KD of MS2 coat protein [1]: 88.3 nM | apparent KD of MS2 coat protein [2]: 24.7 nM | apparent KD of MS2 coat protein [3]: 20.6 nM

GUCCUGUGGCAGGAUAUGAAAACGUAGCAACGGUCAGAAGGGCCAACAUGAGGAUCACCCAUGUACCCGUAUGG [Eternabot (L1) Solution 62] (Eterna round: R97, puzzle: Exclusion 6)
apparent KD of MS2 coat protein (input ligand: FMN 200 uM): 24.3 nM | apparent KD of MS2 coat protein (input ligand: none): 19.9 nM

GGUUGACAUGAGGAUCACCCAUGUGAGGAUAUGCGAGAGAAAAAAGUGAGGAAGUAAAGCAGAAGGCGCUGUCG [salish99-ex1_r3_004] (puzzle: Exclusion 1)
apparent KD of MS2 coat protein [1]: 51.6 nM | apparent KD of MS2 coat protein [2]: 200 nM | apparent KD of MS2 coat protein [3]: 449 nM

UUUAAAACAUAGGAUAUCGAAUUAAUCAUUUAACGAGAAGGAUGAACAUGAGGAUCACCCAUGUGGUAUCAUGG [Mat - Exclusion 6 - JL Mod - D19] (puzzle: Exclusion 6)
apparent KD of MS2 coat protein [1]: 282 nM | apparent KD of MS2 coat protein [2]: 274 nM | apparent KD of MS2 coat protein [3]: 270 nM

GAUUAUGCGAGCUUUAGGGACAUGAGGAUCACCCAUGUUCGUCUUAUUGGUCUGGAUGCGCUAACAUACCUAAAUCU [JMF 46] (puzzle: Sensor v3, turn-off variant 1)
apparent KD of MS2 coat protein [1]: 22.4 nM | apparent KD of MS2 coat protein [2]: 31.7 nM | apparent KD of MS2 coat protein [3]: 22.6 nM

GACAGGGCAGGAUAUCGAGAUCCUCACAUGAGGAUCACCCAUGUUCAGUCGAAAGACUGACGAGAAGGGCCGUGUC [Omei Ex5 E3] (Eterna round: R97, puzzle: Exclusion 5)
apparent KD of MS2 coat protein (input ligand: FMN 200 uM): 36.8 nM | apparent KD of MS2 coat protein (input ligand: none): 33.2 nM

GAAAAUUGAGGAUAUCCAAAAGGCCACAUGAGGAUCACCCAUGUGUAUCCUCGGCCCAAAGGAGAAGGCAAGAUAA [EX5 A.23] (Eterna round: R97, puzzle: Exclusion 5)
apparent KD of MS2 coat protein (input ligand: FMN 200 uM): 974 nM | apparent KD of MS2 coat protein (input ligand: none): 5080 nM

AAUAACAAGCCGAUCCUAAACAUGAGGAUCACCCAUGUGCUCGUCUUGUAAAGUACUAUCACGAAAGUGAUAGUACA (puzzle: Sensor v3, turn-off variant 1)
apparent KD of MS2 coat protein [1]: 16.3 nM | apparent KD of MS2 coat protein [2]: 345 nM | apparent KD of MS2 coat protein [3]: 14.5 nM

ACUAGAUGAGGAUAUGCACAUUUUAGUGUUCCUCUAGAUUAACAUGAGGAUCACCCAUGUAGAAGGCGUCAUUU [Exclusion 2 - 13] (puzzle: Exclusion 2)
apparent KD of MS2 coat protein [2]: 69.7 nM

UAAUACAAGCAAAGAUCUUACAUGAGGAUCACCCAUGUGCUCGUCUUAUAAAGUACUAUCACGAAAGUGAUAGUACA [Mat - Sensor v3 - turn-off var 1 - Eli Mod - D93] (puzzle: Sensor v3, turn-off variant 1)
apparent KD of MS2 coat protein [1]: 20.4 nM | apparent KD of MS2 coat protein [2]: 181 nM | apparent KD of MS2 coat protein [3]: 31.9 nM

ACUUAUAGAGGAUAUACAGUUAAUUACAUGAGGAUCACCCAUGUUCUUCAAUGUAUAUAAGUAGAAGGCUAAGGAA [Ex5 Malc#5 mod] (Eterna round: R97, puzzle: Exclusion 5)
apparent KD of MS2 coat protein (input ligand: FMN 200 uM): 64.3 nM | apparent KD of MS2 coat protein (input ligand: none): 16.7 nM

CCGGCUUAGGAGGAUAUAGGAGUCGAAAGACACCUAGAAGGCCUAACAUGAGGAUCACCCAUGUGUCCUACCGG [Mod of Eli 6 - Jieux - Exclusion 6] (Eterna round: R97, puzzle: Exclusion 6)
apparent KD of MS2 coat protein (input ligand: FMN 200 uM): 78.4 nM | apparent KD of MS2 coat protein (input ligand: none): 24 nM

AUGUGCACGCUGCGGUCCUACAUGAGGAUCACCCAUGUGGUCUGGUGGCGUGGGUCGCCGGACUUGGCUCGUCUUGU [salish99_S_TOV1_R5_030] (Eterna round: R97, puzzle: Sensor, turn-off variant 1)
apparent KD of MS2 coat protein (input ligand: FMN 200 uM): 18.6 nM | apparent KD of MS2 coat protein (input ligand: none): 18.7 nM

UUUUAGGGAGGAUAUACAUUUUUUUUAUUAUCCUCAUUAAUACAUGAGGAUCACCCAUGUAGAAGGCCCAUUUU [Mat - Exclusion 2 - Mod of Hog - D84] (puzzle: Exclusion 2)
apparent KD of MS2 coat protein [2]: 47.9 nM

AUAAGUGAUAAGGAUAUCACUAGCUUCGGCUAGUGAGAAGGUAUCACAUGAGGAUCACCCAUGUGUUCCAAUAA [Ex6/7-A1] (Eterna round: R97, puzzle: Exclusion 6)
apparent KD of MS2 coat protein (input ligand: FMN 200 uM): 603 nM | apparent KD of MS2 coat protein (input ligand: none): 213 nM

UAUUAAACAUAGGAUAUCGAAAAUAUCAUUUAACGAGAAGGAUGAACAUGAGGAUCACCCAUGUGGUAUCAUGG [Mat - Exclusion 6 - JL Mod - D15] (puzzle: Exclusion 6)
apparent KD of MS2 coat protein [1]: 426 nM | apparent KD of MS2 coat protein [2]: 289 nM | apparent KD of MS2 coat protein [3]: 148 nM

GUCACAUGGAUGUAGGAUCACAUGAGGAUCACCCAUGUGACUAACAAGGUUUUUGCUCAUCUUAUGACUAUGUGAAU [A Brourd mod] (Eterna round: R97, puzzle: Sensor, turn-off variant 1)
apparent KD of MS2 coat protein (input ligand: FMN 200 uM): 91.7 nM | apparent KD of MS2 coat protein (input ligand: none): 103 nM

GAUGAAAGAGUCAGGAUAUAUAACCACGACGGCUUGUAGAAGGGACAUGAGGAUCACCCAUGUGAUGGAAUGAU [Eternabot (L2) Solution 13] (Eterna round: R97, puzzle: Brourd's mod of Exclusion 4)
apparent KD of MS2 coat protein (input ligand: FMN 200 uM): 64 nM | apparent KD of MS2 coat protein (input ligand: none): 43.6 nM

UCAUGUCCUGAGGAUAUCAAAGUCCUCCCGACAUGAGAAGGCAGGACAUGAGGAUCACCCAUGUGGAGCAGGGA [Sorareardi] (Eterna round: R97, puzzle: Exclusion 6)
apparent KD of MS2 coat protein (input ligand: FMN 200 uM): 10.3 nM | apparent KD of MS2 coat protein (input ligand: none): 353 nM

ACAUGUAAUGUAGGAUAUUUUACACAUGAGGAUCACCCAUGUAACCGGAGGCUUUACUAUGAGUAAGAGAAGGGUAUGUACAUG [Ex NG2 #63] (Eterna round: R96, puzzle: Exclusion NG 2)
apparent KD of MS2 coat protein (input ligand: FMN 200 uM): 90.5 nM | apparent KD of MS2 coat protein (input ligand: microRNA oligo, concentration not stated): 85.2 nM | apparent KD of MS2 coat protein (input ligand: none): 131 nM

GGUUGGCGAGGAUAUACAUGAGGAUCACCCAUGUGAGAGAAAAAAGUGCGGAAGAAAAGUAGAAGGCGCUGACG [salish99_ex3_r3_029] (puzzle: Exclusion 3)
apparent KD of MS2 coat protein [1]: 82.7 nM | apparent KD of MS2 coat protein [2]: 25.1 nM | apparent KD of MS2 coat protein [3]: 25.7 nM

AAAAAACAAGGAUAUACUAAGGAUGAUUAUCUUAAUUUUUGACAUGAGGAUCACCCAUGUAGAAGGUGUUAAAA [JR_Exclusion2_Sub007] (puzzle: Exclusion 2)
apparent KD of MS2 coat protein [1]: 98.9 nM | apparent KD of MS2 coat protein [2]: 47.5 nM | apparent KD of MS2 coat protein [3]: 41.2 nM

GCCUAAGCAGGAUAUUCAAUAUGUCACAUGAGGAUCACCCAUGUCCAGCGAAAGCUGGAGGGAGAAGGGCUUAGGC [Mat - Exclusion 5 - Eli mod - D100] (puzzle: Exclusion 5)
apparent KD of MS2 coat protein [1]: 21.1 nM | apparent KD of MS2 coat protein [2]: 101 nM | apparent KD of MS2 coat protein [3]: 106 nM

UCGACCGGAGGAUAUUACGUAAAGUACAUGAGGAUCACCCAUGUGUGGUACCUCGAGUCGUAAGAAGGCCGAAAUA [Teisor] (puzzle: Exclusion 5)
apparent KD of MS2 coat protein [1]: 283 nM | apparent KD of MS2 coat protein [2]: 605 nM | apparent KD of MS2 coat protein [3]: 505 nM

CCUUGUGUUGAGGAUAUGCGCCGGCUCGCUGGCGCAGAAGGCGGCACAUGAGGAUCACCCAUGUCAGUUCGCGA [salish99_ex6_r004_012] (Eterna round: R97, puzzle: Exclusion 6)
apparent KD of MS2 coat protein (input ligand: FMN 200 uM): 336 nM | apparent KD of MS2 coat protein (input ligand: none): 29.2 nM
